Results taken from article PMC3490818.

Molecular target: T1, Signal peptide peptidase (human (endogenous in HEK293)), Q8TCT9
T1 chain: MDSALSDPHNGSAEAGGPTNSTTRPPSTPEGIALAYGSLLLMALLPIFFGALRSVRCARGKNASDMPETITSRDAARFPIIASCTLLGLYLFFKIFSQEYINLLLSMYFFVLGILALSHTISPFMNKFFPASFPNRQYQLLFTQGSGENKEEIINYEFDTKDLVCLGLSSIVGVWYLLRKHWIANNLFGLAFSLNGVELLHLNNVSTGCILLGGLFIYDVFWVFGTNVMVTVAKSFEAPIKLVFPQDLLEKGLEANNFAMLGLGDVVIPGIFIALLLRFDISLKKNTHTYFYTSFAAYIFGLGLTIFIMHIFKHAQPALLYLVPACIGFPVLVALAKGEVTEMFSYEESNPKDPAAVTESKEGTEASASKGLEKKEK
Experiment: native gel or EMSA; BN-PAGE of HEK293 or HEK293 vigilin-FLAG lysates solubilized in 0.5% DDM, Western blot for SPP and vigilin (or FLAG); second dimension SDS-PAGE for SPP
Conditions: remark: other sources report otherwise

B1: Signal peptide peptidase, Q8TCT9 1-377 (natural protein)
chain: MDSALSDPHNGSAEAGGPTNSTTRPPSTPEGIALAYGSLLLMALLPIFFGALRSVRCARGKNASDMPETITSRDAARFPIIASCTLLGLYLFFKIFSQEYINLLLSMYFFVLGILALSHTISPFMNKFFPASFPNRQYQLLFTQGSGENKEEIINYEFDTKDLVCLGLSSIVGVWYLLRKHWIANNLFGLAFSLNGVELLHLNNVSTGCILLGGLFIYDVFWVFGTNVMVTVAKSFEAPIKLVFPQDLLEKGLEANNFAMLGLGDVVIPGIFIALLLRFDISLKKNTHTYFYTSFAAYIFGLGLTIFIMHIFKHAQPALLYLVPACIGFPVLVALAKGEVTEMFSYEESNPKDPAAVTESKEGTEASASKGLEKKEK
  stoichiometry N: 2
